Results: the supplement of paper PMC12042874
± gives the uncertainty stated by the source.

Assay: amyloid nucleation score (Sup35N fusion, yeast selection) (log enrichment); library NNK3; higher = more nucleation; inactive = no reads after selection
Summary of the method: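 Growth for 7 days at 30°C on medium lacking adenine and uracil followed a 24-hour induction with 100 μM copper sulfate of psi-negative yeast expressing peptides of 20 random codons fused to Sup35N. Input and output plasmid inserts were sequenced with Illumina, and sequences with under 100 input reads were excluded. Nucleation score is the DiMSum log enrichment of output over input reads, centred on the mode score of non-aggregating sequences.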
For GYECLIVFFMRLLSIPVVSD, the amyloid nucleation score was “inactive”.
With QDDAVFSLSI the amyloid nucleation score was “inactive”.
In the case of MFIFGGISFVMVSYLNRAHT, the amyloid nucleation score is reported as 1.13 ± 0.1.
With YYTWVCECSYWHSVFM the amyloid nucleation score was “inactive”.
With MPSEILVSGIAGYAWAVSR the amyloid nucleation score was -0.504 ± 1.9.
For SNCNPEWQLLIMIDCYNYAL, the amyloid nucleation score was “inactive”.
With PRYGEVGATSFSDVTETML the amyloid nucleation score was “inactive”.
With NSLLGHF the amyloid nucleation score was “inactive”.
For IYIFGFQTVCNSLIGGLSIA, the amyloid nucleation score was “inactive”.
With HDRDHDMINSFIAFRQYWPW the amyloid nucleation score was 0.339 ± 0.34.
With RFKMAYFKNTAYLFNNANSV the amyloid nucleation score was “inactive”.
In the case of MDEGIVKTELFYRWRISRLG, the amyloid nucleation score is reported as “inactive”.
With IYTFSCDIYCNMSFCLWFDN the amyloid nucleation score was 2 ± 0.088.
For RRKHHVISQVPERPLSWLAT, the amyloid nucleation score was “inactive”.
In the case of LRKGVRLLFSHHVIIK, the amyloid nucleation score is reported as “inactive”.
Work on YGFCSC yielded an amyloid nucleation score of -0.033 ± 0.81.
In the case of CICLVDPERLKDKTI, the amyloid nucleation score is reported as “inactive”.
With GLKNV the amyloid nucleation score was -0.431 ± 0.8.
Work on KVFMGRCCWLCSPY yielded an amyloid nucleation score of 1.42 ± 0.1.
With DRGSMSHILASVSTFNVYIS the amyloid nucleation score was 1.2 ± 0.1.
For VSRVTRLNKFISVVHDSCEV, the amyloid nucleation score was “inactive”.
For TLRMTWALSIRLSPLL, the amyloid nucleation score was “inactive”.
With YSANDLPVNAHGEILKVGLL the amyloid nucleation score was “inactive”.
Work on KGFRAVCWICIYRDEY yielded an amyloid nucleation score of -0.533 ± 0.84.
In the case of NYSAFRGSMIV, the amyloid nucleation score is reported as “inactive”.
For TNTNLMYGSGYLLLNGMQCN, the amyloid nucleation score was “inactive”.
With SYLQQLDLSRDGTVLLKSGI the amyloid nucleation score was “inactive”.
In the case of MSKHF, the amyloid nucleation score is reported as “inactive”.
VMRFHVLKVLACCVNGGFDL gave an amyloid nucleation score of 2.73 ± 0.072.
HYSAFTRQSVSSKDTDT showed an amyloid nucleation score of -0.582 ± 0.76.
In the case of NCYDSW, the amyloid nucleation score is reported as “inactive”.
For LKVLVD, the amyloid nucleation score was “inactive”.
NFLFMCSPYYLWIFDPGCYL gave an amyloid nucleation score of 2.8 ± 0.074.
In the case of DACSVNEMSYVDTAGIWVWR, the amyloid nucleation score is reported as “inactive”.
In the case of THRSRKSDPNRQSFIKCGHS, the amyloid nucleation score is reported as “inactive”.
GGWSARYTNCNLYYTEASGP gave an amyloid nucleation score of 0.857 ± 0.18.
With DVGAPCGRFRPHFTNTCLDV the amyloid nucleation score was “inactive”.
In the case of VNSMSC, the amyloid nucleation score is reported as “inactive”.
In the case of LMGLCTLI, the amyloid nucleation score is reported as “inactive”.
With SLIGNSDSPWFLRQTCTYTK the amyloid nucleation score was “inactive”.
For DFRGDLFELMMIYGRGMVLT, the amyloid nucleation score was “inactive”.
YGLTVCTTGLVFNNWMGSMV gave an amyloid nucleation score of 1.83 ± 0.11.
In the case of MCPPVSGNG, the amyloid nucleation score is reported as “inactive”.
For FVERTRKRVNVRRNRHVTET, the amyloid nucleation score was “inactive”.
In the case of SVLVIFVLLSIGSAVKLNYG, the amyloid nucleation score is reported as “inactive”.
With RSQNF the amyloid nucleation score was “inactive”.
In the case of KIYWGATLNQTSYRVAVCLT, the amyloid nucleation score is reported as “inactive”.
Work on AYSSVLINLSEYTLGIAVPM yielded an amyloid nucleation score of 0.062 ± 0.75.
With RCVSMEADWVVSAEFTKDVF the amyloid nucleation score was “inactive”.
AFIRFTVFNIGVKKYSCL gave an amyloid nucleation score of 1.55 ± 0.065.
With RKYVTRCASMMVHHYAYDTR the amyloid nucleation score was “inactive”.
With RYLITVAIPLSIGVLSTV the amyloid nucleation score was “inactive”.
For CCMYMISCRDN, the amyloid nucleation score was “inactive”.
For GLVVWKNGINWLSEGVTIAR, the amyloid nucleation score was 0.567 ± 0.25.
With DILTMCEYDSDNNVGNLCYS the amyloid nucleation score was “inactive”.
In the case of LINAYQLLFQNHQKEMMFVT, the amyloid nucleation score is reported as “inactive”.
In the case of RKASSVFILGFVWWDHFEIL, the amyloid nucleation score is reported as “inactive”.
For KDSRSCLSFL, the amyloid nucleation score was “inactive”.
In the case of YLVMRSKYLYRFYAMVLKDL, the amyloid nucleation score is reported as “inactive”.
In the case of DCLDNK, the amyloid nucleation score is reported as “inactive”.
Substance AVTFTHRFSRISPCHRRRWK has an amyloid nucleation score of 1.16 ± 0.1.
For MGHSDNGEDTSTWLCDRRVV, the amyloid nucleation score was “inactive”.
For QSQLGPDCRSYTGGERVLDV, the amyloid nucleation score was “inactive”.
In the case of LYTDDAPGDVFLFNAFRVFH, the amyloid nucleation score is reported as “inactive”.
YSIDMHVNVHGTYYLMSKWV showed an amyloid nucleation score of 1.73 ± 0.12.
For YNMNVFAGGCAMCMWISRLF, the amyloid nucleation score was 2.61 ± 0.074.
In the case of SRSNQNCLPSASMNVYLSVT, the amyloid nucleation score is reported as “inactive”.
With NVSRRGC the amyloid nucleation score was “inactive”.
In the case of RGSWSYQILWINTVRW, the amyloid nucleation score is reported as -0.347 ± 0.53.
For RSRVSQFICRPGEVVNIAKC, the amyloid nucleation score was “inactive”.
For RRNWSCMQTLSLANVVRVSA, the amyloid nucleation score was “inactive”.
For PDWVVPDGGIVTGIVGWCSG, the amyloid nucleation score was “inactive”.
In the case of VDVFK, the amyloid nucleation score is reported as “inactive”.
In the case of NSRSFNTFKYNYGMLGFGVA, the amyloid nucleation score is reported as -0.612 ± 0.84.
With IEAMRNRWSFKY the amyloid nucleation score was “inactive”.
In the case of NYLGVTYCSYSS, the amyloid nucleation score is reported as “inactive”.
With IVVCAQTLHSLGPRPIEPTQ the amyloid nucleation score was “inactive”.
In the case of VILMFDSCGGFDW, the amyloid nucleation score is reported as “inactive”.
For DADSMRWNSPGLCH, the amyloid nucleation score was “inactive”.
In the case of RPFSNAGYAFNHGFFV, the amyloid nucleation score is reported as “inactive”.
In the case of FLDSSVW, the amyloid nucleation score is reported as “inactive”.
For FCDALMIVTEFGEGLWARWR, the amyloid nucleation score was “inactive”.
In the case of YLLSMSENMRLALIECVAV, the amyloid nucleation score is reported as “inactive”.
In the case of NAHSHGYGSVPGR, the amyloid nucleation score is reported as “inactive”.
For QCRHPGSRP, the amyloid nucleation score was “inactive”.
In the case of HLWCKPRLWKSLFVPYD, the amyloid nucleation score is reported as “inactive”.
With VYQGMYNKSAYC the amyloid nucleation score was “inactive”.
With GPSAGGFCQLRGVDVDV the amyloid nucleation score was “inactive”.
In the case of GYNIMLYMLKYS, the amyloid nucleation score is reported as “inactive”.
In the case of SLDLALNMFFFLYAGSNFFF, the amyloid nucleation score is reported as “inactive”.
Work on NWRLFWG yielded an amyloid nucleation score of 1.6 ± 0.077.
TFLELSIMYGRVTCNSLY gave an amyloid nucleation score of -0.259 ± 0.8.
For YHMVCNCDWVGVAFYVSYGR, the amyloid nucleation score was 1.91 ± 0.065.
Substance KDNPLSCLVKVNVWTKLQEG has an amyloid nucleation score of 1.16 ± 0.12.
With VCVRYFGDIFYVLYTFVMRA the amyloid nucleation score was 0.051 ± 0.46.
With GIASFECGDSCKSVN the amyloid nucleation score was “inactive”.
With LPTIQILRQNTVPIGVHHKF the amyloid nucleation score was “inactive”.
With MEINAVPD the amyloid nucleation score was “inactive”.
For KLRVFV, the amyloid nucleation score was “inactive”.
In the case of TCIGNNPMPYFTFCITHNAM, the amyloid nucleation score is reported as 1.03 ± 0.24.
For VKLRPLCAVKIRRYLYVVRE, the amyloid nucleation score was -0.054 ± 0.3.
In the case of ISLFGIMWIRLLHLRHESKA, the amyloid nucleation score is reported as “inactive”.
In the case of YLVSLRLVYSNILEFVKRVC, the amyloid nucleation score is reported as “inactive”.
For RCKIENVIYM, the amyloid nucleation score was 2.44 ± 0.058.
With WDLGASYLTGMFWVRIVGLE the amyloid nucleation score was “inactive”.
With GWRFMLFRAQLFIWMIICFC the amyloid nucleation score was “inactive”.
With RRMNISRGSCVELWFRFQWP the amyloid nucleation score was 0.163 ± 0.43.
In the case of SDHLQ, the amyloid nucleation score is reported as “inactive”.
RAFHYNSCKSVSAVLDLNVL gave an amyloid nucleation score of -0.094 ± 0.31.
In the case of YKLICMSSRWTFLSSRQGEF, the amyloid nucleation score is reported as “inactive”.
Substance SVIVKAKASTVGDMQAKCRI has an amyloid nucleation score of 1.1 ± 0.15.
With EVCWVSEWQLIVMRFSCTWL the amyloid nucleation score was “inactive”.
Work on YWIEAPIFYPLFTAIVKQAM yielded an amyloid nucleation score of 0.294 ± 0.49.
In the case of IESIH, the amyloid nucleation score is reported as “inactive”.
For NCFMSLASSNTR, the amyloid nucleation score was “inactive”.
In the case of CCWRNLYSFLRKGSYSRCM, the amyloid nucleation score is reported as “inactive”.
In the case of ADRMDGDSTGFYSTNLRGYS, the amyloid nucleation score is reported as “inactive”.
With CSATRYFCRNLRRVCVNEYG the amyloid nucleation score was “inactive”.
For RRLLSKGVKIVRLISDEVYC, the amyloid nucleation score was “inactive”.
With SLPGSKYKAFH the amyloid nucleation score was “inactive”.
With GLHLYEFRGRCNTSVDSQTK the amyloid nucleation score was “inactive”.
In the case of WRNENLPQSGRSMLVIFLLV, the amyloid nucleation score is reported as “inactive”.
In the case of SNRGYTKRYF, the amyloid nucleation score is reported as “inactive”.
For SYVCWDIFIGQRSNAALSTI, the amyloid nucleation score was “inactive”.
In the case of GGCGGVKHAHYNTIEY, the amyloid nucleation score is reported as “inactive”.
With IMICILHLC the amyloid nucleation score was “inactive”.
For YDVPTSTDSLFATFVYYGRR, the amyloid nucleation score was 1.44 ± 0.12.
For SFCGLYVKFSVGYVVLIWGS, the amyloid nucleation score was “inactive”.
In the case of FRRYRRCDLGLLSSMRPSAH, the amyloid nucleation score is reported as “inactive”.
In the case of NQRSAILVGPSRNLQY, the amyloid nucleation score is reported as “inactive”.
For RRSYTFRSVGKEWNIAYWYI, the amyloid nucleation score was “inactive”.
With SVVEPRRTGTWNSTGVRSQH the amyloid nucleation score was “inactive”.
For LARQFF, the amyloid nucleation score was “inactive”.
For RWLFRSWPGRRMA, the amyloid nucleation score was “inactive”.
In the case of IANRKSGMKSTRKKESWH, the amyloid nucleation score is reported as “inactive”.
In the case of NMVSFWN, the amyloid nucleation score is reported as “inactive”.
With TPGNNSYAVLMLNELTYKPA the amyloid nucleation score was 0.92 ± 0.13.
FVNCLCKRARYYSSGGLSSP showed an amyloid nucleation score of -0.512 ± 1.4.
For EVYMFFSCPSSNHVWDSRYV, the amyloid nucleation score was “inactive”.
For TFCFPWL, the amyloid nucleation score was “inactive”.
TVRYVYTCFINFQTLVHRRM gave an amyloid nucleation score of -0.784 ± 0.8.
With VSRPS the amyloid nucleation score was “inactive”.
In the case of QGEHRHLCDLSLSEG, the amyloid nucleation score is reported as “inactive”.
With TTEEL the amyloid nucleation score was “inactive”.
With RLNVYTYAKFRRHRCKATSW the amyloid nucleation score was “inactive”.
For KDSYMSCYKPRYVLPRRIIQ, the amyloid nucleation score was “inactive”.
In the case of RFSGM, the amyloid nucleation score is reported as “inactive”.
With GRIYFYLVKTDPVQERTQLF the amyloid nucleation score was “inactive”.
For WIVFMGDASCLSLLTWELFC, the amyloid nucleation score was 1.25 ± 0.095.
For ACLSFVYALYPLCLRLIS, the amyloid nucleation score was “inactive”.
For TVACNVFYQLCVE, the amyloid nucleation score was “inactive”.
In the case of SSMAVQRGGNYITMIYGH, the amyloid nucleation score is reported as “inactive”.
With IGHSTTYHKRQECSLVQWSS the amyloid nucleation score was “inactive”.
In the case of AGGSVYKIVEFSCLLFNQKY, the amyloid nucleation score is reported as “inactive”.
REGRVLVWYSYYKFYTRHYF showed an amyloid nucleation score of 0.004 ± 0.72.
With FNVVMSRYIYYCVMGVIRMS the amyloid nucleation score was “inactive”.
With FMKEVSGRQDLLRPIMIHNA the amyloid nucleation score was “inactive”.
With VKGMKCWCQVRSESGLVSNA the amyloid nucleation score was “inactive”.
Work on FNAYNIFVKVPNVMPSS yielded an amyloid nucleation score of 2.19 ± 0.09.
With FTYGMSSVFVGHF the amyloid nucleation score was “inactive”.
